Results from the Human Domainome abundance scans (Beltran et al. 2025).
± gives the uncertainty stated by the source.

B1: Serine/threonine-protein kinase A-Raf, residues 21 to 89; numbered along this chain, P10398 (parent)
chain: VKVYLPNKQRTVVTVRDGMSVYDSLDKALKVRGLNQDCCVVYRLIKGRKTVTAWDTAIAPLDGEELIVE

Variants of: B1
Experiment: abundance fitness (aPCA) (normalised: wild type 0, dead -1); higher = more abundant; growth selection in yeast, the domain comes from the species named
Conditions: Homo sapiens

Variant | abundance fitness
VKVYLPNKQRTVVTVRDGMSVYDSLDKALKVIGLNQDCCVVYRLIKGRKTVTAWDTAIAPLDGEELIVE [R32I] | 0.188 ± 0.13
VKVYLPNKQRTVVTVRDGMSVYDSLDKALKVWGLNQDCCVVYRLIKGRKTVTAWDTAIAPLDGEELIVE [R32W] | -0.203 ± 0.057
VKVYLPNKQRTVVTVRDGMSVYDSLDKALKVRGLNQDCCVVYRLIKGRKTVTAWDTAIAPPDGEELIVE [L61P] | -0.631 ± 0.38
VKVYLPNKQRTVVTVRDGMSVYDSLDKALKVRGLNFDCCVVYRLIKGRKTVTAWDTAIAPLDGEELIVE [Q36F] | -0.134 ± 0.12
VKVYLPNKQRTVVTVRDGMSVYDSLDKALKVRGLNHDCCVVYRLIKGRKTVTAWDTAIAPLDGEELIVE [Q36H] | -0.203 ± 0.077
VKVYLPNKQRTVVTVRDGMSVYDSLDKALKVRGLNQDCCVVYRLIKGRPTVTAWDTAIAPLDGEELIVE [K49P] | -0.445 ± 0.092
VKVYLPNKQRTVVTVRDGMSVYDSLDKALKVRGLNQDCCVVYRLIKGRTTVTAWDTAIAPLDGEELIVE [K49T] | -0.968 ± 0.19
VKVYLPNKQRTVVTVRDGMSVYDSLDKALKVRGLNQDCCVVYRLIKGRYTVTAWDTAIAPLDGEELIVE [K49Y] | -0.668 ± 0.19
VKVYLPNKQRTVVTVRDGMSVYDSLDKALKVRGLNQDCCVVYRLIKGRKTVTAWDTALAPLDGEELIVE [I58L] | -0.015 ± 0.039
VKVYLPNKQRTVVTVRDGMSVYDSLDKALKVRGLNQDCCVVYRLIKGRKTVTAWDTAAAPLDGEELIVE [I58A] | -0.201 ± 0.085
VKVYLPNKQRTVVTVRDGMSVYDSLDKALKVRGLNQDCCVVYRLIKGRKTVTAWDTAIAPLDGHELIVE [E64H] | -0.339 ± 0.18
VKVYLPNKQRTVVTVRDGMSVYDSLDKALAVRGLNQDCCVVYRLIKGRKTVTAWDTAIAPLDGEELIVE [K30A] | -0.218 ± 0.047
VKVYLPNKQRTVVTVPDGMSVYDSLDKALKVRGLNQDCCVVYRLIKGRKTVTAWDTAIAPLDGEELIVE [R16P] | -0.117 ± 0.063
VKVYLPNKQRTVVTVKDGMSVYDSLDKALKVRGLNQDCCVVYRLIKGRKTVTAWDTAIAPLDGEELIVE [R16K] | -0.045 ± 0.052
VKVYLPNKQRTVVTVRDGMSVYDSLDKALKPRGLNQDCCVVYRLIKGRKTVTAWDTAIAPLDGEELIVE [V31P] | -0.41 ± 0.1
VKVYLPNKQRTVVTVRDGMSVYDSLDKALKVRGLNQDCCVVYRLIKGRKTVTAWDTAIATLDGEELIVE [P60T] | 0.027 ± 0.078
VKVYLPNKQRTVVTVRDGMSVYDSLDKALKVRGLNQDCCVVYRLIKGRKTVTAWDTAIAELDGEELIVE [P60E] | 0.064 ± 0.059
VKVYLPNKQRTVVTVRDGMSVYDSLDKALKVRGLNQDCCVVYRLIKGRKTVMAWDTAIAPLDGEELIVE [T52M] | 0.118 ± 0.05
VKVYLPNKQRTVVTVRDGMSVYDWLDKALKVRGLNQDCCVVYRLIKGRKTVTAWDTAIAPLDGEELIVE [S24W] | -0.35 ± 0.061
VKVYLPNKQRTVVTVRDGMSVYDSLDKALKVRGLNQDCCVFYRLIKGRKTVTAWDTAIAPLDGEELIVE [V41F] | -0.846 ± 0.24

Variant | abundance fitness
VKVYLPNKQRTVVTVRDGMSVYDSLDKALKVRGLNQDCCVWYRLIKGRKTVTAWDTAIAPLDGEELIVE [V41W] | -0.549 ± 0.1
VKVYLPNKQRTVVTVRDGMSVYDSLDKALKVRGLNQDCCVQYRLIKGRKTVTAWDTAIAPLDGEELIVE [V41Q] | -0.849 ± 0.17
VKVYLPNKQRTVVTVRDGMSVYDSLDKALKVRGLNQDCCVRYRLIKGRKTVTAWDTAIAPLDGEELIVE [V41R] | -0.559 ± 0.099
VKVYLPNKQRTVVTVRDGMSVYDSLDKTLKVRGLNQDCCVVYRLIKGRKTVTAWDTAIAPLDGEELIVE [A28T] | -0.206 ± 0.098
VKVYLPNKQRTVVTVRDGMSVYDSLDKALKVRGLNQDCCVVYRLIKGRKTVTANDTAIAPLDGEELIVE [W54N] | -0.917 ± 0.24
VKVYLPNKQRTVVTVRDGMSVYDSLDKALKVRGLNQDCCVVYRLIKGRKTITAWDTAIAPLDGEELIVE [V51I] | 0.102 ± 0.13
VKVYLPNKQRTVVTVRDGMSVYDSLDKALKVRGLNQDCCVVYRLIKGRKTKTAWDTAIAPLDGEELIVE [V51K] | -0.001 ± 0.076
VKVYLPNKQRTVVTVRDGMSVSDSLDKALKVRGLNQDCCVVYRLIKGRKTVTAWDTAIAPLDGEELIVE [Y22S] | 0.094 ± 0.053
VKVYLPNKQRTVVTVRDGMSVLDSLDKALKVRGLNQDCCVVYRLIKGRKTVTAWDTAIAPLDGEELIVE [Y22L] | -0.04 ± 0.047
VKVYLPNKQRTVVTVRDGMSVYDSLDKALKVRGLNQDCCVVYRLIKGRKTVTAWRTAIAPLDGEELIVE [D55R] | -0.343 ± 0.025
VKVYLPNKQRTVVTVRTGMSVYDSLDKALKVRGLNQDCCVVYRLIKGRKTVTAWDTAIAPLDGEELIVE [D17T] | -0.178 ± 0.055
VKVYLPNKQRTVVTVRDGMSVYDSLDKALKVRVLNQDCCVVYRLIKGRKTVTAWDTAIAPLDGEELIVE [G33V] | -0.573 ± 0.069
VKVYLPNKQRTVVTVRDGMSVYDSLDKALKVRGLNQDCCVVYRLIKGRKTVTAWDTAIAPLYGEELIVE [D62Y] | -0.311 ± 0.16
VKVYLPNKQRTVVTVRDGMSVYDSLDKALKVRGLNQDCCVVYRLIKGRKTVTAWDTAIAPLLGEELIVE [D62L] | -0.078 ± 0.054
VKVYLPNKQRTVVTVRDGMSVYDSLDKALKVRGLNQDCCVVYRLIKGRKTVTAWDTAIAPLMGEELIVE [D62M] | -0.062 ± 0.087
VKVYLPNFQRTVVTVRDGMSVYDSLDKALKVRGLNQDCCVVYRLIKGRKTVTAWDTAIAPLDGEELIVE [K8F] | -0.363 ± 0.072
VKVYLPNDQRTVVTVRDGMSVYDSLDKALKVRGLNQDCCVVYRLIKGRKTVTAWDTAIAPLDGEELIVE [K8D] | -0.133 ± 0.1
VKVYLPNMQRTVVTVRDGMSVYDSLDKALKVRGLNQDCCVVYRLIKGRKTVTAWDTAIAPLDGEELIVE [K8M] | -0.107 ± 0.042
VKVYLPNLQRTVVTVRDGMSVYDSLDKALKVRGLNQDCCVVYRLIKGRKTVTAWDTAIAPLDGEELIVE [K8L] | -0.363 ± 0.037
